Molecular target: the molecule itself
Test: mass photometry

B1: Irgb6-WT (wild-type Irgb6) (enzyme, mouse)
chain: MAWASSFDAFFKNFKRESKIISEYDITLIMTYIEENKLQKAVSVIEKVLRDIESAPLHIAVTGETGAGKSTFINTLRGVGHEEKGAAPTGAIETTMKRTPYPHPKLPNVTIWDLPGIGTTNFTPQNYLTEMKFGEYDFFIIISATRFKENDAQLAKAIAQMGMNFYFVRTKIDSDLDNEQKFKPKSFNKEEVLKNIKDYCSNHLQESLDSEPPVFLVSNVDISKYDFPKLETKLLQDLPAHKRHVFSLSLQSLTEATINYKRDSLKQKVFLEAMKAGALATIPLGGMISDILENLDETFNLYRSYFGLDDASLENIAQDLNMSVDDFKVHLRFPHLFAEHNDESLEDKLFKYIKHISSVTGGPVAAVTYYRMAYYLQNLFLDTAANDAIALLNSKALFEKKVGPYISEPPEYWEA
stoichiometry N: 2
